Assay: label from the status in PepcDB records

Row | Sequence | protein production
1 | MDFHTDTIILLAGLLFIVGVITAKFSTRLGVPALVLFILVGMLVGSDGLGLIHFDFSQAHFAQLIGIFALVIILFEGGLQTKWKTVQSVAVPSLSLATFGVLITSTLVAVAAKYVLGVSWLEAYLFGAIVGSTDAAAVFAVLKEQNIKDRLATTLEAESGTNDPMAVFLTLSLIELITIGSMNPLHLFGSFLWQMGAGLILGFGLGKLGSYSINKINLDSSGLYPVFALAFALLTYSVTAMIGASGLLAVYVAALVIGNQDLTYRHSIFRFNEGFAWMMQMLMFIILGLLVFPNQLFEASIFIKGILLSLILMLVARPVAVFLTTIKMRFDWKEKLFLSWAGLRGAVPIVLATFPMTAGLENSPLFFNVVFFVVLTSALIQGSTIAHFANKLQLTGPQKTTPLHSLELVSIGKANAEIVELEMKQDTPVIGKTLEEINLPKDVLVNAIIRDEQLITPYGKTTIQADDILYVLVSKKKKRQLKELFQAKES | failed
2 | MDGALRNRSARVVDSEHRTHPPGIRRSVCWSLLALDSRLHGRTSTQDRQVGCGRLWCRPSEARCGAMKLLVTGGGGFLGQALCRGLRARGHEVVSFQRGNYPVLRSLGVGQIRGDLADPQAVRHALAGIDAVFHNAAKAGAWGSYDSYHQANVVGTQNVIEACRATGVPRLIYTSTPSVTHRATNPVEGLGADEVPYGDNLRAAYAATKAIAERAVLAANDAQLATVALRPRLIWGPGDNHLLPRLAARARAGRLRMVGDGSNLVDSTYIDNAAQAHFDAFEHLAVGAACAGKAYFISNGEPLPMRELLNRLLAAVDAPAVTRSLPFKTAYRIGAVCETLWPLLRLPGEVPLTRFLVEQLCTPHWYSMQPARRDFGYVPRISIEEGLQRLRSSSSNDIAITG | failed
3 | MDGFVQWMEKHFMPKASVIAAQRHLVAIRDAFVVTMPLMILGALAVLINNIPIPGYEDFLNKIFPMMYNDAPIWKSFGGNIWNGTFAIFAVLVAFLVAHNLVKSYGKDGIAAGTVSVASFFAVGGLEGMGATGLFIALIIALISGELFQRLSGNPKLVIKMPDGVPPAVAKSFAALLPAMITISLFSLITSILFALGIDNIVISFYEAVQQPFMGLANSYPSALLLAFITPFLWFFGLHGANMVDPLMQTINVPAIDANIKALEAGKAIPYIVNKPFFDSFVNLGGTGATLGLLIAIFIVGRRNKPYKVITNLSLAPGLFNINEPVMFGLPIVLNPIMFIPFILVPMVLVTVAYVATATGLVPAATFMPPWVTPPIIGGFLATKSIAGGVLAAVNLLISILIYMPFVKVATDQYLKQEAAAEAAE | failed
4 | MDGKRVWLSDDELTRFIEQAETPHQRLAFLLAGRVGLRRSEIIEVCPQDLVDGPTGDHIRVWESYAKRDKYREPPVPQEVVTIAETLAYQQDDDEPLLDVAGSTVYRWVRRAADELEEETGDRGWQYLDVHDLRRTWGTYLLEQGVIPSVVMSFGGWEDWDTFRKHYLGEFSLEHHHHHH | not failed
5 | MDGSIRVSAKTVDDAITEALIQLGVTSDRLEYEVIEKGSSGFLGIGMKQAVIEARRKPEPVAEVKEETIPVEEVKPSVVKEQVSEPVQEKQEEKAEEEPARKKATELAEVSDEAIKAVEAFLNDTLKAMDMDVEIVSEVDSEGALSVEMKGSNMGILIGKRGQTLDALQYLANRVANKHQDGYVRVKLDTENYRARREETLRHLAKNIAFKVKRTRRAVSLEPMNPYERRIIHAALQSDPHVTTHSEGEEPYRKVVVTLKR | failed
6 | MDGTPGHNAINRLQLVATLAEREVMRYTPAGVPIVNCLLSYSGQAMEAQAARQVEFSIEALGAGKMASVLDRIAPGTVLECVGFLARKHRSSKALVFHISGCNVFVKDLEHHHHHH | failed
7 | MDGVGAHAHTGELRSAQALRSASLWLWPLLCWALLAGWPLGAHPLKHTAYHTVTRWDMDDGLPHNLVHAVAQGSDGVIWLGTWEGVARFNGRDFTVFDRQNTPGVELGGVFVVVRDGDGMLFGTAFDGVYRHQDGRWQQLGDASARHLAVSALLRRADGALWVGTPQTLYRIELDGRVVDVGRQAGLPRARITALSTDARGDLWIGTDVGLYQLPLGASAATAWGQAHGMADTPVRRLASDRQGGLLVAGDDGVWWWSRGGGLQRFRQGQRVDSLVMDRSGHLWMSLSAGTLVVHSGPDDPDEQIAISGVASPALLEDAEGLIWVGSTHGLFRVAEGAAHGVTIDDGLASDYVRSVLQTADGTVWVGSAVGLDRWRDGQIARVPFSRGSAGRVLEQSVLALADAGDGGVWAGTYSQGVLRLDAQGAVVQRIGAAEGLSSLSVRAVLPDGDALWIGTTAGLVRWHDGRARRYTAADGVPDGSVQVLYRDAQGTIWSGTDRGMTALSPDGGTRAWLGEQDFPGQNAFDFLRDPSGDLWIASDRGLLRLRGERFQVYDHRVGLPRDKVFRVIDDGRGYLWLSSNHGVFRIARRDFDQIDAGTREQLSVEVVDRSDGMPGNQGNGSSAPAGWLTQTGQLLFPTAAGLGVIDPARVGTLQGHRVPIVIERLVVDGMVQPLDGPHRLSADTRRIAIGYAGLNFRGPDKVRYRYRLDGFDPDWVDADSATEAVYTNLPPGRFRFRVQAMSLPVDWRQAALLGETSVVLELAPPWWRRGEVIGLGVLCLASVIYGFYLWRTASYRRRQRELNVVIDKRTRELSDKNLALQQASQEREALMRQLEYRASHDVLTALPNRREAERVLQQWLDEAQAGGAPLALALADIDHFKRINDAHGHEVGDAVLRAVGEVLADQEHAHCFAARHGGEEFLLAVTGLEAAHARALFEQQRQRLGTIAIAADEATVQCTASMGMAMSNEAHSRRELLALADRRLYHAKRQGRDRLIDQ | failed
8 | MDHHAQHHPRSHACVLPNGLRLHLAHDPAASRAAAWLRVAAGSHDEPSAHPGLAHFLEHLSFLGGAAFPGDERLMPWLQVRGGQVNASTLGKTTDYFFEVTAEHLGAGLARLIDMLARPLLDIDAQRREREVLEAEYLARSADEQTLIDAALALGLPAGHPLRRFAAGRRDSLALESDAFQRALREFHAAHYHAGNCQLWLQGPQTLDELERLAQRACADLPGRAPGASPPPPPLLPFACEALALRLPGPPRLVLGFALDALRGADEQTLLAFAELLGDRSPGGLLAALGEQGLGESVALRVVHRDARQALLALTFELFDGSAAAALEAAFFDWLGALRDDAASLLAARRPLLAEPTAPLERLRQRVLGLPAEIRPACLDALRADRCLRLHLDSELDGAEARWSAGFRLSVAPVAAAPPLAAQRHAWRFELPLPPSAAAEGALFLRWRFPGVPARSRFLALRQALRPLCGQARLGGVEMGLEALGEDWSLSLLGPRDRLEAAVRPALARLLAAPPDWRANGERLSSAERRRSATGLPIRQLLDALPGLLGEPLAEVDDWRRTRWDALVMQAAMPDPRWMPGQAAGERLEPLPPRPGRHRRELAVDGESALLLFCPLPTQEVPMEAAWRLLARLHEPAFQRRLRDELQLGYALFCGFREVGARRGLLFAAQSPRACPARLLEHMETFLQRSAEALAQLPARRLAGLRKALADDLRRAPGSFAERARRAWAEHLGGGAGRSRLLAEAALGLSGDDLLAAQARLLEARGGWWVLSSRR | failed
9 | MDHHHHHHHHMPRTTGMNVAVVGGGISGLAVAHHLRSRGTDAVLLESSARLGGAVGTHALAGYLVEQGPNSFLDREPATRALAAALNLEGRIRAADPAAKRRYVYTRGRLRSVPASPPAFLASDILPLGARLRVAGELFSRRAPEGVDESLAAFGRRHLGHRATQVLLDAVQTGIYAGDVEQLSVAATFPMLVKMEREHRSLILGAIRAQKAQRQAALPAGTAPKLSGALSTFDGGLQVLIDALAASLGDAAHVGARVEGLAREDGGWRLIIEEHGRRAELSVAQVVLAAPAHATAKLLRPLDDALAALVAGIAYAPIAVVHLGFDAGTLPAPDGFGFLVPAEEQRRMLGAIHASTTFPFRAEGGRVLYSCMVGGARQPGLVEQDEDALAALAREELKALAGVTARPSFTRVFRWPLGIPQYNLGHLERVAAIDAALQRLPGLHLIGNAYKGVGLNDCIRNAAQLADALVAGNTSHAP | not failed
10 | MDHIRTHNTHHARKSADHLCVITDGGVSAIDRVSQRNIRVRLGAEHHDQLFCQAHGLKRLLPGKSIDLHKDKKWRTLICSITKNPETSMTPDAARKNSPEMKPRKKKKRQFRQLFARSLQRLARTRSGSAEFSGPLRSVAILAQEKLGDCVLLTPLVRNLRQAFPDLEIHLITFSRASANFFMNDPQVTAVHLVKKQPRRYFREVLSRKFDLLFNTKDHPSTWFLLQSALIRARFKVGHNNPFHEGLYDRLLDTEFHAHMAVKNCALLPLLGVTADTEACRPSLPAMPVSNEIWQLLSRLAEDIRPIGVNISAGEPNRLWTEAKWRALLERFPGERFVVLSGPDDLDAKRRLEEQCPNAVASPPTRNLYEASCIVAKLRLLVTPDTSMVHVASATGTPVAGLYREAPQDISRFGPYAIPYEIVISPTGEVSGIKPESVADAVRRLMARAIGREA | failed

From a protein production outcome set (Wang et al. 2014)
